Test results from PMC6555819, “Comprehensive study of nuclear receptor DNA binding provides a revised framework for understanding receptor specificity”.

What was measured:
VDR:RXRa = VDR:RXRa (Homo sapiens, UniProt P11473;P19793 full;full); assay: no ligand; PBM; 270 nM : 90 nM RXRa; PBS pH 7.4, 2% milk, 0.02% Triton X-100, 1 mM DTT, BSA, 0.4 mg/ml salmon testes DNA; settings: tags: His kept;His cleaved; copies: 1;1; label: surface-attached array probe
Outline: (§1)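 Custom Agilent 4×180K protein-binding microarrays carried double-stranded probes. Their 34-nt variable regions held direct-repeat seeds, single-nucleotide variants, half-site ablations and random human genomic background sequences. Arrays were incubated 1 h with ligand-free nuclear receptor dimers in PBS pH 7.4, 2% milk, 0.02% Triton X-100, 1 mM DTT, 0.2 mg/mL BSA and 0.4 mg/ml salmon testes DNA. Antibodies against each partner (one per run) detected binding, and scanned fluorescence was regression-normalized. Binding z-scores use random background probes as reference.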

LXRa:RXRa = LXRa:RXRa (Homo sapiens, UniProt Q13133;P19793 full;full); assay: as above; settings: tags: His kept;His cleaved; copies: 1;1; label: surface-attached array probe
Sequence of LXRa:RXRa (Q13133 whole entry, chain 1 of 2): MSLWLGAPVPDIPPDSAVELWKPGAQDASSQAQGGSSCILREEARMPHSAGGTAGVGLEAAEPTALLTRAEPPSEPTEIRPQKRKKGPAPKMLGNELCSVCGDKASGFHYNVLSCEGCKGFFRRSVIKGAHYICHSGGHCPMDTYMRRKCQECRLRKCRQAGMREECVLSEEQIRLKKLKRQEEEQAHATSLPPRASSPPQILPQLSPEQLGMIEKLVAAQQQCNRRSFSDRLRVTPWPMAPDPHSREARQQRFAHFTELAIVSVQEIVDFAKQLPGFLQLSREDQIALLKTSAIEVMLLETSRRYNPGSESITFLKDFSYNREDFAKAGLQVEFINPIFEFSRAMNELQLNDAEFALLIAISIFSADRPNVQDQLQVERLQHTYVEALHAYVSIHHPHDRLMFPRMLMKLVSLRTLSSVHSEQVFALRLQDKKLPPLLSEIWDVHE
Sequence of LXRa:RXRa (P19793 whole entry, chain 2 of 2): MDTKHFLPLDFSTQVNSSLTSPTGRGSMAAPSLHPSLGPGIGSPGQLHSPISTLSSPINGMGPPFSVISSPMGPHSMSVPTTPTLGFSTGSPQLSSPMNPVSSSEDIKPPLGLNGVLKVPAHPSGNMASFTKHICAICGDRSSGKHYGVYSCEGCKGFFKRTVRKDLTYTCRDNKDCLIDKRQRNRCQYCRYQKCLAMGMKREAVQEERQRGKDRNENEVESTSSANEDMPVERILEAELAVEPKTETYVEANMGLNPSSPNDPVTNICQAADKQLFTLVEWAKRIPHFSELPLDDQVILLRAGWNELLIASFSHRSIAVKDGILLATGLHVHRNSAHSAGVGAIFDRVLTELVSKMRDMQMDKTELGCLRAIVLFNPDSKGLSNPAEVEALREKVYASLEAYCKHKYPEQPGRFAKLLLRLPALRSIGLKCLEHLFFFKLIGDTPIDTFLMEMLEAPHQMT
Outline: as §1

PXR:RXRa = PXR:RXRa (Homo sapiens, UniProt O75469;P19793 full;full); assay: as above; settings: tags: His kept;His cleaved; copies: 1;1; label: surface-attached array probe
Outline: as §1

THRa:RXRa = THRa:RXRa (Homo sapiens, UniProt P10827;P19793 full;full); assay: no ligand; PBM; 90 nM : 90 nM RXRa; PBS pH 7.4, 2% milk, 0.02% Triton X-100, 1 mM DTT, BSA, 0.4 mg/ml salmon testes DNA; settings: tags: His kept;His cleaved; copies: 1;1; label: surface-attached array probe
Sequence of THRa:RXRa (P10827 other isoform, or with tags, fused parts or gaps, chain 1 of 2): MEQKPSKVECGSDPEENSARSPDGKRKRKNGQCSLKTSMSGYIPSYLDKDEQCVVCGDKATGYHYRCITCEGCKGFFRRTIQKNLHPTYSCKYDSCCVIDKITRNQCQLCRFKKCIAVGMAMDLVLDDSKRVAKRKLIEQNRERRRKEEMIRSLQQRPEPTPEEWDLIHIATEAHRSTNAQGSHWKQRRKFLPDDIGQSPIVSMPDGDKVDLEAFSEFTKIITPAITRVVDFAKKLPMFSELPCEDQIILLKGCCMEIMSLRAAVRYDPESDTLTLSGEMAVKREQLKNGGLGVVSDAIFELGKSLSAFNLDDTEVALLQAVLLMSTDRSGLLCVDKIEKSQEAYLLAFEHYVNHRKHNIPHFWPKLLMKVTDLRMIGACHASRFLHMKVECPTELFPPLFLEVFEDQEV
Sequence of THRa:RXRa (P19793 whole entry, chain 2 of 2): as the sequence (P19793 whole entry, chain 2 of 2) above
FXR:RXRa = FXR:RXRa (Homo sapiens, UniProt Q96RI1;P19793 full;full); assay: no ligand; PBM; 270 nM : 90 nM RXRa; PBS pH 7.4, 2% milk, 0.02% Triton X-100, 1 mM DTT, BSA, 0.4 mg/ml salmon testes DNA; settings: tags: His kept;His cleaved; copies: 1;1; label: surface-attached array probe
Outline: as §1

RARb:RXRa = RARb:RXRa (Homo sapiens, UniProt P10826;P19793 full;full); assay: as above; settings: tags: His kept;His cleaved; copies: 1;1; label: surface-attached array probe
Outline: as §1

LXRb:RXRa = LXRb:RXRa (Homo sapiens, UniProt P55055;P19793 full;full); assay: as above; settings: tags: His kept;His cleaved; copies: 1;1; label: surface-attached array probe
Sequence of LXRb:RXRa (P55055 whole entry, chain 1 of 2): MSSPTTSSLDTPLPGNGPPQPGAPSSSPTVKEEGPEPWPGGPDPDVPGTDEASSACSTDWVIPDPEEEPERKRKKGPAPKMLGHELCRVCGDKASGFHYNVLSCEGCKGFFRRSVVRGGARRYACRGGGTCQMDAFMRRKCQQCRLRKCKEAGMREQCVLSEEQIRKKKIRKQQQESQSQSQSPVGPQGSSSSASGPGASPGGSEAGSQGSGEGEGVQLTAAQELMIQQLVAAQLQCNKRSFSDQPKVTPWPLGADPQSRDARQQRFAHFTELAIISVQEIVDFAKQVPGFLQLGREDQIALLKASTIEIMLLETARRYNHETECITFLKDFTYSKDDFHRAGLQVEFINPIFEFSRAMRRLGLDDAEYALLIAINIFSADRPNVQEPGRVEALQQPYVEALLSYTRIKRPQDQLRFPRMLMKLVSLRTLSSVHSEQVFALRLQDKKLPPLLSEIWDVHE
Sequence of LXRb:RXRa (P19793 whole entry, chain 2 of 2): as the sequence (P19793 whole entry, chain 2 of 2) above
Outline: as §1

RARg:RXRa = RARg:RXRa (Homo sapiens, UniProt P13631;P19793 full;full); assay: as above; settings: tags: His kept;His cleaved; copies: 1;1; label: surface-attached array probe
Outline: as §1

PPARa:RXRa = PPARa:RXRa (Homo sapiens, UniProt Q07869;P19793 full;full); assay: as above; settings: tags: GST kept;His cleaved; copies: 1;1; label: surface-attached array probe
Outline: as §1

PPARg:RXRa = PPARg:RXRa (Homo sapiens, UniProt P37231;P19793 full;full); assay: no ligand; PBM; 180 nM : 90 nM RXRa; PBS pH 7.4, 2% milk, 0.02% Triton X-100, 1 mM DTT, BSA, 0.4 mg/ml salmon testes DNA; settings: tags: His kept;His cleaved; copies: 1;1; label: surface-attached array probe
Sequence of PPARg:RXRa (P37231 29-505, chain 1 of 2): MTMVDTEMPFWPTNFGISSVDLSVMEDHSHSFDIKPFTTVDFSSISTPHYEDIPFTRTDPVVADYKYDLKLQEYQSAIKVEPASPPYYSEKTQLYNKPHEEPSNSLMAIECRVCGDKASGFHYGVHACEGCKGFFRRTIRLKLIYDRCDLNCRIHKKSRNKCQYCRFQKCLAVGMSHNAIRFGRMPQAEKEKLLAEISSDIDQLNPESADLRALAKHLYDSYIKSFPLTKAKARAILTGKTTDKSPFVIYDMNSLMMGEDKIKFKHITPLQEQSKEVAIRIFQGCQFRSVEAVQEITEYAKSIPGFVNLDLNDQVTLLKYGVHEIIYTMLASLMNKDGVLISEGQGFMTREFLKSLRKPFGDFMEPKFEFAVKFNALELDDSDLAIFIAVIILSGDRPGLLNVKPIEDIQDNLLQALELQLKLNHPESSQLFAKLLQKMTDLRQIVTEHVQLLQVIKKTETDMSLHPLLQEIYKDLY
Sequence of PPARg:RXRa (P19793 whole entry, chain 2 of 2): as the sequence (P19793 whole entry, chain 2 of 2) above

RXRa = RXRa (Homo sapiens, UniProt P19793); assay: no ligand; PBM; 180 nM; PBS pH 7.4, 2% milk, 0.02% Triton X-100, 1 mM DTT, BSA, 0.4 mg/ml salmon testes DNA; settings: tags: His cleaved; chain copies: 2; label: surface-attached array probe

Sequence of VDR:RXRa (P11473 whole entry, chain 1 of 2): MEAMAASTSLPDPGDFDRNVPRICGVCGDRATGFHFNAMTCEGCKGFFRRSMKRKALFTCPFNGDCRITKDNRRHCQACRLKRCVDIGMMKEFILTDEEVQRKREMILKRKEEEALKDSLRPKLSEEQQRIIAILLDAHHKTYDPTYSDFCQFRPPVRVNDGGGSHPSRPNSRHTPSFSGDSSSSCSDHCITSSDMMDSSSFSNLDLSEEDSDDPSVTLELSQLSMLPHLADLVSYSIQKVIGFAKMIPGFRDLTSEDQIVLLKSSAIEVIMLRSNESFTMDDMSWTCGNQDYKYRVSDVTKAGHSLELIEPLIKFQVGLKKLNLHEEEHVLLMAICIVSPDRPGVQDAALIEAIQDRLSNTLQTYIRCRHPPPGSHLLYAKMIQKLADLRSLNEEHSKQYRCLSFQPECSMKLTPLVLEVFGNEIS
Sequence of VDR:RXRa (P19793 whole entry, chain 2 of 2): as the sequence (P19793 whole entry, chain 2 of 2) above

B1: NRC3_wobSeed119_DR4_G23C_o1 (dsDNA)
DNA 1: GCGGAACGAGGGCATTCGAGTTCATAGCATGGCGATGCGATTGACAGCGTAGAATGAAGG
DNA 2: CCTTCATTCTACGCTGTCAATCGCATCGCCATGCTATGAACTCGAATGCCCTCGTTCCGC
In the case of B1, the binding signal (VDR:RXRa) is reported as 7.03 PBM z-score against 500 random probes, the binding signal (LXRa:RXRa) is reported as 6.87 PBM z-score against 500 random probes and the binding signal (PXR:RXRa) is reported as 7.11 PBM z-score against 500 random probes. For the same binder, the binding signal (THRa:RXRa) was 4.79 PBM z-score against 500 random probes.

B2: NRC3_wobSeed94_DR3_G13C_o1 (dsDNA)
DNA 1: GCCTACCAAGGTCAACAAGGTCGTTGATTACTATTCGCGATTGACAGCGTAGAATGAAGG
DNA 2: CCTTCATTCTACGCTGTCAATCGCGAATAGTAATCAACGACCTTGTTGACCTTGGTAGGC
For B2, the binding signal (FXR:RXRa) was 8.19 PBM z-score against 500 random probes, the binding signal (VDR:RXRa) was 8.68 PBM z-score against 500 random probes and the binding signal (RARb:RXRa) was 5.51 PBM z-score against 500 random probes. The binding signal (LXRb:RXRa) was 5.94 PBM z-score against 500 random probes, the binding signal (LXRa:RXRa) was 6.7 PBM z-score against 500 random probes and the binding signal (PXR:RXRa) was 6.83 PBM z-score against 500 random probes. The binding signal (THRa:RXRa) was 4.82 PBM z-score against 500 random probes.

B3: NRC3_wobSeed73_DR3_A18G_o1 (dsDNA)
DNA 1: GCCAAACTAGGTCACAGGGGTCAAAGTCCGTGCGTAGCGATTGACAGCGTAGAATGAAGG
DNA 2: CCTTCATTCTACGCTGTCAATCGCTACGCACGGACTTTGACCCCTGTGACCTAGTTTGGC
For B3, the binding signal (RARg:RXRa) was 7.8 PBM z-score against 500 random probes, the binding signal (PPARa:RXRa) was 7.23 PBM z-score against 500 random probes and the binding signal (PPARg:RXRa) was 10.8 PBM z-score against 500 random probes. The binding signal (THRa:RXRa) was 5.07 PBM z-score against 500 random probes.

B4: NRC3_wobSeed138_DR5_C13G_o1 (dsDNA)
DNA 1: GCGATACAGGGTGAGCTAGAGGCCAGAGTATGGAAAGCGATTGACAGCGTAGAATGAAGG
DNA 2: CCTTCATTCTACGCTGTCAATCGCTTTCCATACTCTGGCCTCTAGCTCACCCTGTATCGC
For B4, the binding signal (PPARg:RXRa) was 0.43 PBM z-score against 500 random probes and the binding signal (THRa:RXRa) was 0.33 PBM z-score against 500 random probes.

B5: NRC3_random_hg19_80_o1 (dsDNA)
DNA 1: GCCAATACAGCTTTGGCTTCTGCAGAATCTGAGGAAGCGATTGACAGCGTAGAATGAAGG
DNA 2: CCTTCATTCTACGCTGTCAATCGCTTCCTCAGATTCTGCAGAAGCCAAAGCTGTATTGGC
With B5 the binding signal (PPARg:RXRa) was -0.24 PBM z-score against 500 random probes, the binding signal (RXRa) was -0.53 PBM z-score against 500 random probes and the binding signal (THRa:RXRa) was -1.02 PBM z-score against 500 random probes.

B6: NRC3_wobSeed113_DR4_G15A_o1 (dsDNA)
DNA 1: GCATATGTAGGTTAACTGGGGTCATTCAGACTAGGCGCGATTGACAGCGTAGAATGAAGG
DNA 2: CCTTCATTCTACGCTGTCAATCGCGCCTAGTCTGAATGACCCCAGTTAACCTACATATGC
B6 was tested, and the binding signal (VDR:RXRa) was 7.19 PBM z-score against 500 random probes, the binding signal (LXRb:RXRa) was 6.88 PBM z-score against 500 random probes and the binding signal (LXRa:RXRa) was 7.87 PBM z-score against 500 random probes. For the same binder, the binding signal (PXR:RXRa) was 6.99 PBM z-score against 500 random probes and the binding signal (THRa:RXRa) was 5.49 PBM z-score against 500 random probes.

B7: NRC3_random_hg19_47_o1 (dsDNA)
DNA 1: GCGCCTTCAGGAACATGCTATTCTGTCTATGGAGTCGCGATTGACAGCGTAGAATGAAGG
DNA 2: CCTTCATTCTACGCTGTCAATCGCGACTCCATAGACAGAATAGCATGTTCCTGAAGGCGC
For B7, the binding signal (PPARg:RXRa) was 0.27 PBM z-score against 500 random probes and the binding signal (THRa:RXRa) was -0.54 PBM z-score against 500 random probes.

B8: NRC3_wobSeed114_DR4_C22T_o1 (dsDNA)
DNA 1: GCAATACAGGGTCATCGTAGGTCAGAGTACGCACAGGCGATTGACAGCGTAGAATGAAGG
DNA 2: CCTTCATTCTACGCTGTCAATCGCCTGTGCGTACTCTGACCTACGATGACCCTGTATTGC
For B8, the binding signal (LXRb:RXRa) was 6.24 PBM z-score against 500 random probes, the binding signal (LXRa:RXRa) was 7.62 PBM z-score against 500 random probes and the binding signal (PXR:RXRa) was 6.36 PBM z-score against 500 random probes. The binding signal (THRa:RXRa) was 5.25 PBM z-score against 500 random probes.

B9: NRC3_random_hg19_379_o1 (dsDNA)
DNA 1: GCAGGCTGGCAGATGGTTCAACAGGTGAGTAAAGCAGCGATTGACAGCGTAGAATGAAGG
DNA 2: CCTTCATTCTACGCTGTCAATCGCTGCTTTACTCACCTGTTGAACCATCTGCCAGCCTGC
For B9, the binding signal (LXRa:RXRa) was -0.53 PBM z-score against 500 random probes, the binding signal (PPARg:RXRa) was -0.07 PBM z-score against 500 random probes and the binding signal (THRa:RXRa) was -0.17 PBM z-score against 500 random probes.
